Target: T1, GST-FOXO3 peptide P2 (amino acids 154-259), O43524
T1 chain: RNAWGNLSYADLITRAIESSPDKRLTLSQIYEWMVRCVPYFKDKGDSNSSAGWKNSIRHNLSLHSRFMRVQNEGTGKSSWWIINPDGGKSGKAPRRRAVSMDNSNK

B1: FLAG-MST1 (protein)
chain: METVQLRNPPRRQLKKLDEDSLTKQPEEVFDVLEKLGEGSYGSVYKAIHKETGQIVAIKQVPVESDLQEIIKEISIMQQCDSPHVVKYYGSYFKNTDLWIVMEYCGAGSVSDIIRLRNKTLTEDEIATILQSTLKGLEYLHFMRKIHRDIKAGNILLNTEGHAKLADFGVAGQLTDTMAKRNTVIGTPFWMAPEVIQEIGYNCVADIWSLGITAIEMAEGKPPYADIHPMRAIFMIPTNPPPTFRKPELWSDNFTDFVKQCLVKSPEQRATATQLLQHPFVRSAKGVSILRDLINEAMDVKLKRQESQQREVDQDDEENSEEDEMDSGTMVRAVGDEMGTVRVASTMTDGANTMIEHDDTLPSQLGTMVINAEDEEEEGTMKRRDETMQPAKPSFLEYFEQKEKENQINSFGKSVPGPLKNSSDWKIPQDGDYEFLKSWTVEDLQKRLLALDPMMEQEIEEIRQKYQSKRQPILDAIEAKKRRQQNF
Question: With B1 as the protein, how does the “in vitro kinase assay (phosphorylation of GST-FOXO3 peptides)” value read?
Answer: The value was “MST1 robustly phosphorylated the P2 fragment”.
